Laboratory results taken from publication PMC4837482, “The complex binding mode of the peptide hormone H2 relaxin to its receptor RXFP1” (Nature Communications, 2016).
Where a chain is given by its changes, count along the chain named.

How the values were obtained:
Test in all cases: cAMP activity assay (pCRE β-galactosidase reporter), transfected HEK293T cells
Assay type in all cases: cell-based
RXFP1 N43A = target: T1, RXFP1 N43A (Homo sapiens, UniProt Q9HBX9, N65A); details: construct N43A, ±s.e.m.
T1 construct: transiently transfected human embryonic kidney (HEK) 293T cells expressing full-length RXFP1 and mutants; expressed in transfected cells; host or cells: HEK293T
T1 sequence (Q9HBX9 23-757 N65A limits assumed): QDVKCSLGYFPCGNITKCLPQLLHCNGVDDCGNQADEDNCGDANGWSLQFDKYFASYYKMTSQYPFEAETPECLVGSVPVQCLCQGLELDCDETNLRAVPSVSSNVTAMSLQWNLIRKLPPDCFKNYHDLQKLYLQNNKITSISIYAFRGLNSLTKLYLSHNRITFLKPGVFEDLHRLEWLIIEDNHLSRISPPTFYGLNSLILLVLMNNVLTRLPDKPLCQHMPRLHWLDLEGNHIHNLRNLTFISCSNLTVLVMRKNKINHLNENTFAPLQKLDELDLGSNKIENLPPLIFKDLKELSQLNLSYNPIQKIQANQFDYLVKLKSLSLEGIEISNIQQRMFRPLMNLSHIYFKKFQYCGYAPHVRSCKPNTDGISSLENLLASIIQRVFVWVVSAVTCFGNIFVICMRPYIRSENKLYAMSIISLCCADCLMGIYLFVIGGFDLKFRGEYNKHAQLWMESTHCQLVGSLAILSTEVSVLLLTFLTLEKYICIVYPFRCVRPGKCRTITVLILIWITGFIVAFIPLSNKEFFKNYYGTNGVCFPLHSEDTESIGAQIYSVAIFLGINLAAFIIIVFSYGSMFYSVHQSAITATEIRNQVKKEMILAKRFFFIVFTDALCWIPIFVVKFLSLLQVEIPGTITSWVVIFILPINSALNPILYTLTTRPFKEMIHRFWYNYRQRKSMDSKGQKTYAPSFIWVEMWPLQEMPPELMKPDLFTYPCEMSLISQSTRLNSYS
How it was run: (§1)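 HEK293T cells transfected with mutant RXFP1 and pCRE β-galactosidase reporter, stimulated with H2 relaxin in minimal media/1% DMSO. β-Galactosidase read with chlorophenol red-β-D-galactopyranoside at 570 nm; responses pooled from ≥3 triplicate experiments as % of 5 μM forskolin maximum.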

RXFP1 F66A = target: T2, RXFP1 F66A (Homo sapiens, UniProt Q9HBX9, F88A); details: construct F66A, ±s.e.m.
T2 construct: cells expressing full-length RXFP1 and mutants; expressed in transfected cells; host or cells: HEK293T
T2 sequence (Q9HBX9 23-757 F88A limits assumed): T1 sequence (Q9HBX9 23-757 N65A limits assumed) with A43N, F66A
How it was run: as §1

RXFP1 M60A = target: T3, RXFP1 M60A (Homo sapiens, UniProt Q9HBX9, M82A); details: construct M60A, ±s.e.m.
T3 construct: cells expressing full-length RXFP1 and mutants; expressed in transfected cells; host or cells: HEK293T
T3 sequence (Q9HBX9 23-757 M82A limits assumed): T1 sequence (Q9HBX9 23-757 N65A limits assumed) with A43N, M60A
How it was run: as §1

[1] = percentage of maximum response to 5 μM Forskolin

H2 relaxin: two-chain 6-kDa peptide hormone structurally related to insulin; recombinant human gene-2 H2 relaxin provided by Corthera
H2 relaxin pEC50 (RXFP1 N43A; cAMP reporter): 9.06±0.48 (4)
H2 relaxin Emax (RXFP1 N43A; [1]): 120.23±7.81 (4) %
H2 relaxin pEC50 (RXFP1 F66A; cAMP reporter): 11.20±0.08
H2 relaxin Emax (RXFP1 F66A; [1]): 88.29±3.52 (3) %
H2 relaxin pEC50 (RXFP1 M60A; cAMP reporter): 11.20±0.03 (4)
H2 relaxin Emax (RXFP1 M60A; [1]): 118.2±6.51 (4) %
